According to patent US20260374883 (published 2026):
Numbering of substitutions follows the chain as printed.

B1: m1F8-2 (antibody, V domains shown)
VH: QVQLQQSGAELARPGASVKLSCKASGFTFTNYWMQWIKQRPGQGLEWIGAIYPGSGESRYTRKFKGKATLTADKSSSTAYMQLNSLASEDSAVYYCARWAGYSRNAAYWGQGTLVTVSA
VL: DVLMTQTPLSLPVSLGDQASISCRSRQSIVHSSGNTYLEWYLQKPGQSPKLLIYKVSNRFSGVPDRFSGSGSGTDFTLKISRVEAEDLGVYYCFQGSHIPPTFGGGTKLEIK
B2: m1F8-1 (antibody, V domains shown)
VH: B1 VH
VL: B1 VL with R26S

Columns and labels:
rat CX3CR1 = target: T1, rat CX3CR1 (rat, UniProt P35411); assay: FACS
T1 chain: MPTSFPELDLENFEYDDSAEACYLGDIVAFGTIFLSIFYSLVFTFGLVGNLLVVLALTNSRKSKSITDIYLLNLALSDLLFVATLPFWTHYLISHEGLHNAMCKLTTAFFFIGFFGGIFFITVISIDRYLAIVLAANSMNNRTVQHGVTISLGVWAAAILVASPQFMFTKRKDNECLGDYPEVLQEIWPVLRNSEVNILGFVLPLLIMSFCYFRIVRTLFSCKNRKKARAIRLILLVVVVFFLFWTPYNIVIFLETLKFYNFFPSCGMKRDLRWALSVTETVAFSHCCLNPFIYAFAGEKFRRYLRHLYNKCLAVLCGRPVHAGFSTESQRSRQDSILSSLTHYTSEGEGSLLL

mouse CX3CR1 = target: T2, mouse CX3CR1 (mouse, UniProt Q9Z0D9); assay: FACS
T2 chain: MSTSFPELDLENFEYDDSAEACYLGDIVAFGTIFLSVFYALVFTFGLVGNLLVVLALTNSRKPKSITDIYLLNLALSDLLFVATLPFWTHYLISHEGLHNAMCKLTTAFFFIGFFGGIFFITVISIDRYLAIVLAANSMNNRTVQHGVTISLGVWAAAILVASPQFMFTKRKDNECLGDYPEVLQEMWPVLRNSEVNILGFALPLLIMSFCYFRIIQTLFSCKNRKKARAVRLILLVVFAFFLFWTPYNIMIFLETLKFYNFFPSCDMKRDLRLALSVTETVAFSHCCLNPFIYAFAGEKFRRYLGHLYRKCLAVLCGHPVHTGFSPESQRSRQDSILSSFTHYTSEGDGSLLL

Binder | binding result (rat CX3CR1) | binding result (mouse CX3CR1)
B1 | no binding | no binding
B2 | no binding | no binding
